Measurements from patent CN116178551A (BEIJING DONGFANG BIOTECH CO LTD, dated 2023).

B1: MA-1鼠源抗体 (murine full antibody MA-1, mouse IgG2a / mouse Ck) (antibody, V domains shown)
VH: EVKLEESGGGLVKPGGSLKLSCAASGFAFSDYDMSWVRQTPEKRLEWVATISSGGSYTYYPDSVKGRFTISRDNARNTLYLQMSSLRSEDTALYYCTSPRQVGLRKAFDYWGQGTTLTVSS
VL: DIVVTQSPALMSASPGEKVTMTCSASSSVSYMYWYQQKPRSSPKSWIYLTSNLASGVPARFSGSGSGTSYSLTISSMEAEDAATYYCQQWSSNPFTFGSGTKLEIKR
notes: also called 抗NKG2A单克隆抗体MA-1; 鼠源全抗分子
B2: 噬菌体单克隆抗体MA-1 (phage-displayed single-chain antibody MA-1) (scFv)
chain: EVKLEESGGGLVKPGGSLKLSCAASGFAFSDYDMSWVRQTPEKRLEWVATISSGGSYTYYPDSVKGRFTISRDNARNTLYLQMSSLRSEDTALYYCTSPRQVGLRKAFDYWGQGTTLTVSSDIVVTQSPALMSASPGEKVTMTCSASSSVSYMYWYQQKPRSSPKSWIYLTSNLASGVPARFSGSGSGTSYSLTISSMEAEDAATYYCQQWSSNPFTFGSGTKLEIKRAD

Experiments:
huFc-NKG2C/CD94 = target: T1, huFc-NKG2C/CD94 (UniProt P26717 94-231; Q13241 32-179, limits assumed); assay: ELISA, serial dilution of MA-1 on huFc-NKG2C/CD94, anti-mouse Ig-HRP
T1 construct: The construct is named only, and its architecture is not described; not shown: human Fc (huFc)

huFc-NKG2E/CD94 = target: T2, huFc-NKG2E/CD94 (UniProt Q07444 94-240; Q13241 32-179, limits assumed); assay: ELISA, serial dilution of MA-1 on huFc-NKG2E/CD94, anti-mouse Ig-HRP
T2 construct: The construct is named only, and its architecture is not described; not shown: human Fc (huFc)

huFc-NKG2A/CD94 = target: T3, huFc-NKG2A/CD94 (UniProt P26715 94-233; Q13241 32-179, limits assumed); assay: phage supernatant ELISA, huFc-NKG2A/CD94 against huFc-NKG2C/CD94 and huFc-NKG2E/CD94 (selection criterion met by MA-1)
T3 construct: The construct is named only, and its architecture is not described; The Fc is placed N-terminal following the printed name; not shown: human Fc (huFc)
T3 sequence (P26715 94-233 limits assumed, chain 1 of 2): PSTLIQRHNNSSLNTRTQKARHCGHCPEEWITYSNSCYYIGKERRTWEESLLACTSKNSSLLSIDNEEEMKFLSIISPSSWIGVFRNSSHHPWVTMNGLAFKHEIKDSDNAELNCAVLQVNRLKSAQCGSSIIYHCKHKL
T3 sequence (Q13241 32-179 limits assumed, chain 2 of 2): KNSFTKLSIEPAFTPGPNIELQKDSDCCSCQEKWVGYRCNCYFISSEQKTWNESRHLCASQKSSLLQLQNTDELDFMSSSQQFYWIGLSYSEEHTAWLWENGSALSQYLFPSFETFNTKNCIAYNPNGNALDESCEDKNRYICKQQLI

T2 sequence (Q07444 94-240 limits assumed, chain 1 of 2): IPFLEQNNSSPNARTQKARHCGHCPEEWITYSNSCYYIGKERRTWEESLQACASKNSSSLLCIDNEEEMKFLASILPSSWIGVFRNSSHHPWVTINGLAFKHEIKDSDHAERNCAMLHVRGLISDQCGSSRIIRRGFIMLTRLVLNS
T2 sequence (Q13241 32-179 limits assumed, chain 2 of 2): as the sequence (Q13241 32-179 limits assumed, chain 2 of 2) above
T1 sequence (P26717 94-231 limits assumed, chain 1 of 2): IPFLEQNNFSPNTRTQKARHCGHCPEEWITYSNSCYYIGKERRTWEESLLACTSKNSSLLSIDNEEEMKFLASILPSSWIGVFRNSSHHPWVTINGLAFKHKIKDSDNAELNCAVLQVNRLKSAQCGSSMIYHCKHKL
T1 sequence (Q13241 32-179 limits assumed, chain 2 of 2): as the sequence (Q13241 32-179 limits assumed, chain 2 of 2) above

Row | Binder | binding result (huFc-NKG2C/CD94) | binding result (huFc-NKG2E/CD94) | OD450nm读值 with NKG2A relative to NKG2C/E (huFc-NKG2A/CD94) [fold]
1 | B1 | no binding | no binding | –
2 | B2 | – | – | > 3
